From the nanobody polyreactivity screen of Harvey et al. (2022)

assay: yeast display, Sf9 membrane polyspecificity reagent, FACS + sequencing; frameworks hold sequencing errors
Method in brief: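 Nanobodies from a synthetic yeast display library (Saccharomyces cerevisiae BJ5465), induced 36–48 hours with galactose, were stained 1 hour at 4 °C with 10% biotinylated, detergent-solubilized Sf9 membrane reagent, enriched on streptavidin microbeads, then FACS-sorted. Anti-HA (expression) and streptavidin (reagent binding) fluorescence set low and high (top ~1%) gates. Polyreactivity labels come from the gate of origin. Genes were colony-PCR amplified, MiSeq 2 × 250 sequenced and filtered by CDR length.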

Sequence | polyreactivity (PSR sort gate)
QVQLVESGGGLVQAGGSLRLSCAASGITFGFYAMGWYRQAPGKERELVASITWRGGSTYYADSVKGRFTISRDNAKNTVYLQMNSLKPEDTAVYYCAAEQYVFRPRAQEITTYDYWGQGTQVTVTS | high polyreactivity
QVQLVESGGGLVQAGGSLRLSCAASGITFGKNAMGWYRQAPGKESEFVAAISWGGGRTYYADSVKGRFTISRDNAKNTVYLQMNSLKPEDTAVYYCNVGPRAGWYRSNYDYWGQGTQVTVSS | low polyreactivity
QVQLVESGGGLVQAGGSLRLSCAASGITFGLYVMGWYRQAPRKERELVAANSSGGSTNYADSVKGRFTISRDNAKNPVYLQMNSLKPEDTAVYYCNADRLRPEYDYWGQGTQVTVSS | low polyreactivity
QVQLVESGGGLVQAGGSLRLSCAASGITFGPYAMGWYRQAPGKERELVAAITWGGGSTYYADSVKGRFTISRDNAKNTVYFQMNSLKPEDTAVYYCAASVEWYGWYPYDFWGQGTQVTVSS | low polyreactivity
QVQLVESGGGLVQAGGSLRLSCAASGITFGRNTMGWYRQAPGKERELVAAIDSGGNTYADSVKGRFTISRDNAKNTVYLLMNSLKPDDTAVYYCAVDGGEFSSYVYWGQGTQVTVSS | low polyreactivity
QVQLVESGGGLVQAGGSLRLSCAASGITFGRYAMGWYREAPGKERELVAAISRRGGSTHYADSVKGRFTISRDNAKNTVYLQMNSLKPEDTAVYYCNASPYRYRPSEYDYWGQGTQVTVSS | high polyreactivity
QVQLVESGGGLVQAGGSLRLSCAASGITFGSYAMGWYRHAPGKERELVAAIRWRGGNTYYADSVKGRFTISRDNAKNTVYLQMNSLKPEDTAVYSCAARRYGYRYDQPYYNDYWGQGTQVTVSS | low polyreactivity
QVQLVESGGGLVQAGGSLRLSCAASGITFGSYAMGWYRQAPGKEREFVAAISLSGGNTYYADSVKGRFTISRDNAKNTVYLQMNSLKPEDTAVYYCAADYEYSGYGYWGQGTQVTVSS | high polyreactivity
QVQLVESGGGLVQAGGSLRLSCAASGITFGSYAMGWYRQAPGKERELVAAITSGGGTNYADSVKGRFTISRDNPKNTVYLQMNSLKPEDTAVYYCAARYYYLGTRYGYWGQGTQVTVSS | low polyreactivity
QVQLVESGGGLVQAGGSLRLSCAASGITFGTYAMGWYRQATGKERELVDAITRGGRTYYADSVKGRFTISRDNDKNTVYLQMYSLKPEDTAVYYCNAYVLRRYGWRSGDDYDYWGQGTQVNVSS | high polyreactivity
QVQLVESGGGLVQAGGSLRLSCAASGITFGVNAMGGSRQAPGKERELVAAITQRGDSTYYADSVKGRFTISRDTAKNTLDLQMNSLKPEDTAVYYCNADYAWRFPVTYDYWGQGTQVTVSS | low polyreactivity
QVQLVESGGGLVQAGGSLRLSCAASGITFGVYGMGWYRQAPGKERELVAAISRTGGSTYYADSVKGRFTISRDNAKNTVYLQMNSLKPEDTAVYYCAADRYRRVAKHGYWGQGTQVTVSS | high polyreactivity
QVQLVESGGGLVQAGGSLRLSCAASGITFGYYAMGWYRQAPGKEREFVAGITTSGGTTYYADSVKGRFTISRDNENNTVYLHMNSLKPEDTAVYYCAVYGGVKRGSFYYWGQGTQVTVSS | low polyreactivity
QVQLVESGGGLVQAGGSLRLSCAASGITFGYYAMGWYRQAPGKERELVAAISWSGDSTYYADSVKGRFTISRDNAKNTVSLQMNSLKPEDTPVYYCTRGSSWEYGAEYNYWGQGTQVTVSS | low polyreactivity
QVQLVESGGGLVQAGGSLRLSCAASGITFGYYAMGWYRQAPGKERELVASISWSGDSTYYADSVKGRFTISRDNAKNTVYLQMNSLKPEDTAVYYCNRGSSWEYGAEYNYWGQGTQETVSS | low polyreactivity
QVQLVESGGGLVQAGGSLRLSCAASGITFGYYAMGWYRQAPGKERELVATITDGGGTKYADSVKGRFTISRDNAKNTVYLQINSLKPEDTAVYYCAAGLRHVYATEYDYWGQGTQVTVSS | low polyreactivity
QVQLVESGGGLVQAGGSLRLSCAASGITFGYYAMGWYRQAPGKERELVATLTDGGGTKYADSVKGRFTISRDNAMNTVYLQMDSLKPEDTAVYYCAAGLRHVYATEYDYWGQGTQVTVSS | low polyreactivity
QVQLVESGGGLVQAGGSLRLSCAASGITFHDNAMGWYRQAPGKERELVAGSTSGGSTFYADSVKGRFTISRDNAKNTVYLQMNSLKPEDTAVYYCAARRSKYRRGGGYYWGQGTQVTVSS | high polyreactivity
QVQLVESGGGLVQAGGSLRLSCAASGITFHKYAMGWYRQAPGKESELVAAISSGGGTYYADSVKGRFTISRDNAKNTVYLQMNSLKPEDTAVYYCNADIEWLWVRYDYWGQGTQVTVSS | high polyreactivity
QVQLVESGGGLVQAGGSLRLSCAASGITFIIYVMGWYRQAPGKERELVAAISSTGSTYYADSVKGRFTISRDNAKNTVYLQMNSLKPEDTAVYYCAARGRRSSNGFYYWGQGTQVTVSS | high polyreactivity
QVQLVESGGGLVQAGGSLRLSCAASGITFIKNAMGWYRQAPGKERELVAAISRSGGRTYYADSVKGRFTISRDNAKNTVYLQMNSLKPEDTAVYYCAAVTQRSYFYDYWGQGTQVTVSS | high polyreactivity

Sequence | polyreactivity (PSR sort gate)
QVQLVESGGGLVQAGGSLRLSCAASGITFILYAMGWYRQAPGKERELVASITSGGSTDYADSVKGRFTISRDNAKTTVYLQMNSLKPEDTAVYYCAADGRTYHHHDGGWYRYDYWGQGTQVTVSS | low polyreactivity
QVQLVESGGGLVQAGGSLRLSCAASGITFISYAMGWYRQAPGKERELVAVISKSGGRTYYADSVKGRFTISRDNAKNTVYLQMNSLKPEDTAVYYCAATKRYASGMYYWGQGTQVTVSS | high polyreactivity
QVQLVESGGGLVQAGGSLRLSCAASGITFIVKTMGWYRQAPGKEREFVATISANSDGTYYADSVKGRFTISRDNAKNTVYLQMNSLKPEDTAVYYWGQGTQVTVSS | low polyreactivity
QVQLVESGGGLVQAGGSLRLSCAASGITFIWYAMGWYRQAPGKERELVAAISTSGGSTYYADSVKGRFTISRDNAKNTVYLQMNSLKPEDTAVYYCAAVSGGVSRSYDRYYWGQGTQVTVSS | high polyreactivity
QVQLVESGGGLVQAGGSLRLSCAASGITFIYYAMGWYSQAPGKDRELVAAISRSGGSTYYADSVKGRFTISRDNAKNTVYLQMNSLKPEETAVYYCAADGSKYSGRVTGDYWGQGTQVTVSS | high polyreactivity
QVQLVESGGGLVQAGGSLRLSCAASGITFKAYAMGWYRQAPGKERELVAAINTSGARTYYADSVKGRFTISRDNAKNTVYLQMNSLKPEDTAVYYCNARLHQQEGDYWGQGTQVTVSS | low polyreactivity
QVQLVESGGGLVQAGGSLRLSCAASGITFKDYAMGWYRQATGKERELVAVISYSGGSTYYADSVKGRFTISRDNAKNTVYLEMNSLKPEDTAVYYCAARVGPEYDWGQGTQVTVSS | low polyreactivity
QVQLVESGGGLVQAGGSLRLSCAASGITFKPYAMGWYRQAPGKERELVATITFRGGSTYYADSVKGRFTISRDNAKNTVYLQMNSLNPEDTAVYYCAAVTRRYVLSTFYYWGQGTQVTVSS | high polyreactivity
QVQLVESGGGLVQAGGSLRLSCAASGITFKPYGMGWSRQAPGKERELVADITSGGITYYADSVKGRFTISRDNAKNTVYLQMNSLKPEDTAVYYCAAPYQQHVYHHYWGQGTQVTVSS | low polyreactivity
QVQLVESGGGLVQAGGSLRLSCAASGITFKPYGMGWYRPAPGKERELVADITSGGITYYADSVKGRFTISRDNAKNTVYLQMNSLKPEDTAVYYCATGDLFVYYWGYVVRLYDYWGQGTQVTVSS | low polyreactivity
QVQLVESGGGLVQAGGSLRLSCAASGITFKRYAMGWYRQAPGKERELVAAITISAGSTYYADSVKGRFTISRDNAKNTVYLQMNSLKPEDTAVYYCAAESYGSWYYYWGQGTQVTVSS | high polyreactivity
QVQLVESGGGLVQAGGSLRLSCAASGITFKTYAMGWYRQAPGKVRELVATITRGSRTNYADSVKGRFTISRDNAKNTVYLQMNSLKREHTAVYYCAAHYTTFIRSPDGDYLGQGTQVTVSS | low polyreactivity
QVQLVESGGGLVQAGGSLRLSCAASGITFKWNALGWYRQAPGKERELVAVISSDGRTYYADSVKWRFTISRDKAKNTVYLQMNSLKPEDTAVYYCNADRSVIHRGYIWQPGRNDYWGQGTQVTVSS | low polyreactivity
QVQLVESGGGLVQAGGSLRLSCAASGITFKWNDMGWYRQAPGKEREFVAAITGSTGSTFYADSVKGRFTISRDNAKNTVYLQMISLKPEDTAVYYCAAGPWFYYWGQGTQVTVSS | low polyreactivity
QVQLVESGGGLVQAGGSLRLSCAASGITFKYTAMGWYRQAPGKERELVAAISRRGGRTYYADSVKGRFTISRDNAKNTVYLQMNSLKPEDTAVYYCNVETWSVGGREYDYWGQGTQVTVSS | high polyreactivity
QVQLVESGGGLVQAGGSLRLSCAASGITFKYYAMGWYRQAPGKERELVADISWGGGSTYYADSVKGRFTISRDNAKNTVYLQMNSLKPEDTAVYYCAAEYSGSYYSFWMVYWGLGTQVTVSS | low polyreactivity
QVQLVESGGGLVQAGGSLRLSCAASGITFLANAMGWYRQAPGKERELVATITSRGASTYYADSVKGRFTISRDNAKNTVYLQMNSLKPEDSAVYYCAATVRRRYERYNYWGQGTQVTVSS | high polyreactivity
QVQLVESGGGLVQAGGSLRLSCAASGITFLDYTMGWYRQAPGKERELVATISKSGGSTYYADSVKGRFTISRDNAKNTVYLQMNSLKPEDTAVYYFAARGFSFWRYYYWGQGTQVTVSS | high polyreactivity
QVQLVESGGGLVQAGGSLRLSCAASGITFLPYAMGWYRPEPGKERELVAAITRGGGSTYADSVKGRFTISRDNAKNTVYLQMNSLKPEDTAVYYCNAKGRGWTAQYDYWGQGTQVTVSS | low polyreactivity
QVQLVESGGGLVQAGGSLRLSCAASGITFLPYTMGWYRQAPGKERELVATISWNGGSTYYADSVKGRFTISRDNAKNTVYLQMNSLKPEDTAVYYCATGKWGYFRYNYWGQGTQVTVSS | high polyreactivity
